Measurements published in IntAct's records for PubMed 21217698.

B1: DnaJ homolog subfamily B member 11 (Mus musculus), Q99KV1 (parent)
chain: MAPQNLSTFCLLLLYLIGTVIAGRDFYKILGVPRSASIKDIKKAYRKLALQLHPDRNPDDPQAQEKFQDLGAAYEVLSDSEKRKQYDTYGEEGLKDGHQSSHGDIFSHFFGDFGFMFGGTPRQQDRNIPRGSDIIVDLEVTLEEVYAGNFVEVVRNKPVARQAPGKRKCNCRQEMRTTQLGPGRFQMTQEVVCDECPNVKLVNEERTLEVEIEPGVRDGMEYPFIGEGEPHVDGEPGDLRFRIKVVKHRIFERRGDDLYTNVTVSLVEALVGFEMDITHLDGHKVHISRDKITRPGAKLWKKGEGLPNFDNNNIKGSLIITFDVDFPKEQLTEEAKEGIKQLLKQGPVQKVYNGLQGY

Variants of: B1
Details: with bip_mouse Hspa5, P20029
Chain of bip_mouse Hspa5, P20029 (P20029 whole entry): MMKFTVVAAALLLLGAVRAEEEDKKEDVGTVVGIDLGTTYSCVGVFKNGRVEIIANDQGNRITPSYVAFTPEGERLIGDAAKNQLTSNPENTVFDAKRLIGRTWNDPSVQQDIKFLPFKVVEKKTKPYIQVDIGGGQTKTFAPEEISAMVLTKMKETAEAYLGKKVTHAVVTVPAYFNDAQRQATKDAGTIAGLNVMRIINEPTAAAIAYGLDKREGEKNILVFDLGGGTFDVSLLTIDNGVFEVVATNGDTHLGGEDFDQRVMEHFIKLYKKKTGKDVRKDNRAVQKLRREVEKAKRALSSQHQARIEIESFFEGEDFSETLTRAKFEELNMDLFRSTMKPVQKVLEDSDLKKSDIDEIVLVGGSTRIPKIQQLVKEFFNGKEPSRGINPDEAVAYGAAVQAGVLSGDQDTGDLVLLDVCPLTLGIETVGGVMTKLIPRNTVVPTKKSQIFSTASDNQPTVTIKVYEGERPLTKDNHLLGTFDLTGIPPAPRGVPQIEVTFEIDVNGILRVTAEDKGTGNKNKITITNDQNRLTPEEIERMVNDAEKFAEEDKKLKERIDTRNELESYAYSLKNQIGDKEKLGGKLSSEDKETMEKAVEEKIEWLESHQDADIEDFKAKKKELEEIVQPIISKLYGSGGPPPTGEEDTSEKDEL

Row | effect of a mutation on the interaction | Variant
1 | disrupting interaction | H53Q
